# ± gives the uncertainty stated by the source.
# Assay: self-splicing fitness, log relative to wild type (ln ratio); higher = more splicing; Tetrahymena group I intron in knt gene, E. coli kanamycin selection, DiMSum; sequences stand for … in CUCUCU…GGAGGGAAAAGUUAUCAGGCAUGCACCUGGUAGCUAGUCUUUAAACCAAUAGAUUGCAUCGGUUUAAAAGGCAAGACCGUCAAAUUGCGGGAAAGGGGUCAACAGCCGUUCAGUACCAAGUCUCAGGGGAAACUUUGAGAUGGCCUUGCAAAGGGUAUGGUAAUAAGCUGACGGACAUGGUCCUAACCACGCAGCCAAGUCCUAAGUCAACAGAUCUUCUGUUGAUAUGGAUGCAGUUCACAGACUAAAUGUCGGUCGGGGAAGAUGUAUUCUUCUCAUAAGAUAUAGUCGGACCUCUCCUUAAUGGGAGCUAGCGGAUGAAGUGAUGCAACACUGGAGCCGCUGGGAACUAAUUUGUAUGCGAAAGUAUAUUGAUUAGUUUUGGAGUACUCGUGGUCG
# Procedure, shortened: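 Six replicate transformations of E. coli BL21(DE3) with a pET-22b(+) library were grown overnight at 37°C or 30°C. The library randomised all eight P1ex-region intron nucleotides, the intron lying in the knt kanamycin-resistance gene, and plates were LB agar with or without 25 μg/mL kanamycin plus 100 μg/mL carbenicillin, 50 μM IPTG and 0.2% rhamnose. Pooled colonies were amplicon-sequenced on an Illumina HiSeq 2500, and fitness is the DiMSum error-weighted combination of wild-type-normalised replicate fold changes, kanamycin versus none.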
Sequence,self-splicing fitness (ln) (30 °C),self-splicing fitness (ln) (37 °C)
GAAUAGCAAUAUUACGAUAC,-1.47 ± 0.15,-0.123 ± 0.17
CCACAGCAAUAUUACGUUCG,-1.21 ± 0.048,-0.208 ± 0.069
UUGGAGCAAUAUUACGUGCU,–,-2.64 ± 0.34
UCGAAGCAAUAUUACGUGCU,-3.75 ± 0.18,-3.77 ± 0.31
CCAAAGCAAUAUUACGGAUG,-1.44 ± 0.069,-1.48 ± 0.1
GAAGAGCAAUAUUACGAUGC,-2.13 ± 0.16,-1.9 ± 0.18
AUGAAGCAAUAUUACGAAAA,-2.58 ± 0.17,-0.92 ± 0.15
UGCAAGCAAUAUUACGAACG,-0.0871 ± 0.083,0.961 ± 0.11
AGAGAGCAAUAUUACGGUUC,-4.09 ± 0.37,-2.11 ± 0.29
GGGAAGCAAUAUUACGUUAC,-2.75 ± 0.15,-1.15 ± 0.14
CGCAAGCAAUAUUACGUUUC,-2.92 ± 0.16,-2.21 ± 0.23
UCUAAGCAAUAUUACGUUAU,-3.25 ± 0.24,-2.31 ± 0.27
GCAUAGCAAUAUUACGCGUC,-3.3 ± 0.2,-2.97 ± 0.4
AUAAAGCAAUAUUACGGUGC,-1.95 ± 0.1,-0.743 ± 0.13
UUGUAGCAAUAUUACGCGAA,-1.02 ± 0.21,-1.73 ± 0.28
GCCCAGCAAUAUUACGAGGC,-3.64 ± 0.2,-2.5 ± 0.22
UCUGAGCAAUAUUACGCCGA,-1.16 ± 0.21,0.184 ± 0.22
GCACAGCAAUAUUACGAGGC,-2.95 ± 0.12,-3.27 ± 0.2
AUGAAGCAAUAUUACGGUUC,-1.29 ± 0.099,-1.8 ± 0.15
ACGUAGCAAUAUUACGCAUU,-2.8 ± 0.17,-0.657 ± 0.11
CGCUAGCAAUAUUACGUCGC,-2.3 ± 0.33,–
UUUAAGCAAUAUUACGCAAG,-1.43 ± 0.2,-0.275 ± 0.18
GUAAAGCAAUAUUACGAUUU,-0.348 ± 0.051,0.232 ± 0.065
CCGUAGCAAUAUUACGAUGU,-4.42 ± 0.33,-1.79 ± 0.18
CGGAAGCAAUAUUACGGGUA,-3.4 ± 0.23,-2.07 ± 0.14
UCCGAGCAAUAUUACGUUCC,-3.5 ± 0.25,-3.16 ± 0.32

Sequence,self-splicing fitness (ln) (30 °C),self-splicing fitness (ln) (37 °C)
ACACAGCAAUAUUACGUUCA,-1.96 ± 0.066,-0.442 ± 0.064
GGUCAGCAAUAUUACGAAGU,-0.729 ± 0.076,-0.336 ± 0.1
UGAUAGCAAUAUUACGCUUA,-2.07 ± 0.12,-0.143 ± 0.12
ACUUAGCAAUAUUACGGGCA,-1.04 ± 0.091,0.0835 ± 0.096
UGCUAGCAAUAUUACGGAAG,-3.4 ± 0.35,-2.31 ± 0.39
GAGCAGCAAUAUUACGGACC,-0.847 ± 0.11,-0.206 ± 0.16
CGUCAGCAAUAUUACGUUCA,-1.26 ± 0.082,-0.74 ± 0.087
UGCGAGCAAUAUUACGAGUU,-3.05 ± 0.14,-1.35 ± 0.13
GAACAGCAAUAUUACGCAUG,-1.18 ± 0.064,-0.291 ± 0.08
CGAGAGCAAUAUUACGGGGU,-2.86 ± 0.37,-2.27 ± 0.37
AGGAAGCAAUAUUACGAAUC,-2.86 ± 0.25,–
AAUGAGCAAUAUUACGCAGC,-3.14 ± 0.44,-2.54 ± 0.36
CGGAAGCAAUAUUACGGCGA,-0.522 ± 0.3,–
GACUAGCAAUAUUACGUUAC,-2.46 ± 0.19,-1.84 ± 0.22
CUAAAGCAAUAUUACGUCGA,–,-1.99 ± 0.2
CGCGAGCAAUAUUACGUCGC,-2.79 ± 0.24,-3.48 ± 0.37
GAACAGCAAUAUUACGCCUU,-0.755 ± 0.13,0.356 ± 0.14
AUACAGCAAUAUUACGAUGU,-0.929 ± 0.076,-0.0117 ± 0.089
AGCGAGCAAUAUUACGUCUG,-2.03 ± 0.11,-1.8 ± 0.14
GAAUAGCAAUAUUACGACGC,0.293 ± 0.13,-0.0831 ± 0.16
CGCAAGCAAUAUUACGCUGC,-2.59 ± 0.33,-2.41 ± 0.3
GCUGAGCAAUAUUACGCAAG,-3.22 ± 0.3,-2.73 ± 0.44
AUACAGCAAUAUUACGGUAG,-1.54 ± 0.075,-0.891 ± 0.087
UAGCAGCAAUAUUACGACAC,–,-2.15 ± 0.33
UGUGAGCAAUAUUACGGCUG,-0.445 ± 0.12,-0.456 ± 0.19
GGAAAGCAAUAUUACGGACU,-1.51 ± 0.27,-0.961 ± 0.28

Sequence,self-splicing fitness (ln) (30 °C),self-splicing fitness (ln) (37 °C)
UGUCAGCAAUAUUACGCCCA,0.0616 ± 0.14,0.348 ± 0.18
CGGCAGCAAUAUUACGAUGC,-3.41 ± 0.29,-1.6 ± 0.32
UGCUAGCAAUAUUACGGCUC,-1.4 ± 0.2,-1.33 ± 0.23
GUUUAGCAAUAUUACGUUUG,-3.92 ± 0.33,-1.45 ± 0.21
AAAAAGCAAUAUUACGAGGG,-3.5 ± 0.18,-1.84 ± 0.16
ACUUAGCAAUAUUACGUACU,-0.497 ± 0.094,-0.384 ± 0.1
GCAAAGCAAUAUUACGACCC,-1.11 ± 0.073,-0.0707 ± 0.1
UUGGAGCAAUAUUACGAAUU,-1.68 ± 0.31,-0.925 ± 0.41
GGGUAGCAAUAUUACGGAGU,-2.36 ± 0.22,-1.21 ± 0.2
GUCUAGCAAUAUUACGCAGG,-3.11 ± 0.3,-3.31 ± 0.37
CUUUAGCAAUAUUACGGCAA,-2.06 ± 0.24,-1.98 ± 0.28
UCGUAGCAAUAUUACGGGGC,-2.26 ± 0.2,-2.55 ± 0.27
ACCUAGCAAUAUUACGUUAG,-3.59 ± 0.14,-2.69 ± 0.19
UGUAAGCAAUAUUACGUUCG,0.188 ± 0.095,0.33 ± 0.12
ACGUAGCAAUAUUACGGGAC,-4.43 ± 0.3,-1.45 ± 0.16
AGCCAGCAAUAUUACGAUUG,-4.59 ± 0.3,-0.923 ± 0.19
CGCUAGCAAUAUUACGGCCA,-0.309 ± 0.16,-0.364 ± 0.2
AAAUAGCAAUAUUACGUCGU,-2.69 ± 0.17,-1.55 ± 0.16
UAUAAGCAAUAUUACGGAAA,-2.19 ± 0.37,-1.48 ± 0.33
GGCUAGCAAUAUUACGUCUA,-0.349 ± 0.13,-0.105 ± 0.11
UAAAAGCAAUAUUACGCGAA,-2.23 ± 0.12,-0.719 ± 0.12
AGCAAGCAAUAUUACGGGAG,-3.68 ± 0.19,-1.78 ± 0.13
AUUUAGCAAUAUUACGACGU,0.023 ± 0.064,0.539 ± 0.077
GCGCAGCAAUAUUACGCCGA,-0.753 ± 0.49,-1.27 ± 0.28
UGUGAGCAAUAUUACGAGGU,-3.52 ± 0.26,-2.55 ± 0.23

# Source: the supplement of paper PMC7877785
